Target: wild-type unmodified 147 bp nucleosome (nucleosome core particle), P04908;P62807;Q71DI3;P62805
Assay: EMSA
Settings: chain shown with the change

Row | Kd [µM] | Kd (0-32 µM KDM5A^MutR titration) [µM] | Binder
1 | 10.3 |  | KDM5A^CAT (lysine demethylase 5A, residues 1-801), P29375 R264A; R265A; R266A; R271A (protein) MAGVGPGGYAAEFVPPPECPVFEPSWEEFTDPLSFIGRIRPLAEKTGICKIRPPKDWQPPFACEVKSFRFTPRVQRLNELEAMTRVRLDFLDQLAKFWELQGSTLKIPVVERKILDLYALSKIVASKGGFEMVTKEKKWSKVGSRLGYLPGKGTGSLLKSHYERILYPYELFQSGVSLMGVQMPNLDLKEKVEPEVLSTDTQTSPEPGTRMNILPKRTRRVKTQSESGDVSRNTELKKLQIFGAGPKVVGLAMGTKDKEDEVTAAAKVTNRSDAFNMQMRQRKGTLSVNFVDLYVCMFCGRGNNEDKLLLCDGCDDSYHTFCLIPPLPDVPKGDWRCPKCVAEECSKPREAFGFEQAVREYTLQSFGEMADNFKSDYFNMPVHMVPTELVEKEFWRLVSSIEEDVIVEYGADISSKDFGSGFPVKDGRRKILPEEEEYALSGWNLNNMPVLEQSVLAHINVDISGMKVPWLYVGMCFSSFCWHIEDHWSYSINYLHWGEPKTWYGVPSHAAEQLEEVMRELAPELFESQPDLLHQLVTIMNPNVLMEHGVPVYRTNQCAGEFVVTFPRAYHSGFNQGYNFAEAVNFCTADWLPIGRQCVNHYRRLRRHCVFSHEELIFKMAADPECLDVGLAAMVCKELTLMTEEETRLRESVVQMGVLMSEEEVFELVPDDERQCSACRTTCFLSALTCSCNPERLVCLYHPTDLCPCPMQKKCLRYRYPLEDLPSLLYGVKVRAQSYDTWVSRVTEALSANFNHKKDLIELRVMLEDAEDRKYPENDLFRKLRDAVKEAETCASVAQLL
2 | 7.8 |  | KDM5A^CAT (lysine demethylase 5A, residues 1-801), P29375 R280A; R282A (protein) MAGVGPGGYAAEFVPPPECPVFEPSWEEFTDPLSFIGRIRPLAEKTGICKIRPPKDWQPPFACEVKSFRFTPRVQRLNELEAMTRVRLDFLDQLAKFWELQGSTLKIPVVERKILDLYALSKIVASKGGFEMVTKEKKWSKVGSRLGYLPGKGTGSLLKSHYERILYPYELFQSGVSLMGVQMPNLDLKEKVEPEVLSTDTQTSPEPGTRMNILPKRTRRVKTQSESGDVSRNTELKKLQIFGAGPKVVGLAMGTKDKEDEVTRRRKVTNRSDAFNMQMAQAKGTLSVNFVDLYVCMFCGRGNNEDKLLLCDGCDDSYHTFCLIPPLPDVPKGDWRCPKCVAEECSKPREAFGFEQAVREYTLQSFGEMADNFKSDYFNMPVHMVPTELVEKEFWRLVSSIEEDVIVEYGADISSKDFGSGFPVKDGRRKILPEEEEYALSGWNLNNMPVLEQSVLAHINVDISGMKVPWLYVGMCFSSFCWHIEDHWSYSINYLHWGEPKTWYGVPSHAAEQLEEVMRELAPELFESQPDLLHQLVTIMNPNVLMEHGVPVYRTNQCAGEFVVTFPRAYHSGFNQGYNFAEAVNFCTADWLPIGRQCVNHYRRLRRHCVFSHEELIFKMAADPECLDVGLAAMVCKELTLMTEEETRLRESVVQMGVLMSEEEVFELVPDDERQCSACRTTCFLSALTCSCNPERLVCLYHPTDLCPCPMQKKCLRYRYPLEDLPSLLYGVKVRAQSYDTWVSRVTEALSANFNHKKDLIELRVMLEDAEDRKYPENDLFRKLRDAVKEAETCASVAQLL
3 | 14 | 14 | KDM5A^CAT (lysine demethylase 5A, residues 1-801), P29375 R210A; R217A; R219A; R220A; R232A; R264A; R265A; R266A; R271A; R280A; R282A (protein) MAGVGPGGYAAEFVPPPECPVFEPSWEEFTDPLSFIGRIRPLAEKTGICKIRPPKDWQPPFACEVKSFRFTPRVQRLNELEAMTRVRLDFLDQLAKFWELQGSTLKIPVVERKILDLYALSKIVASKGGFEMVTKEKKWSKVGSRLGYLPGKGTGSLLKSHYERILYPYELFQSGVSLMGVQMPNLDLKEKVEPEVLSTDTQTSPEPGTAMNILPKATAAVKTQSESGDVSANTELKKLQIFGAGPKVVGLAMGTKDKEDEVTAAAKVTNASDAFNMQMAQAKGTLSVNFVDLYVCMFCGRGNNEDKLLLCDGCDDSYHTFCLIPPLPDVPKGDWRCPKCVAEECSKPREAFGFEQAVREYTLQSFGEMADNFKSDYFNMPVHMVPTELVEKEFWRLVSSIEEDVIVEYGADISSKDFGSGFPVKDGRRKILPEEEEYALSGWNLNNMPVLEQSVLAHINVDISGMKVPWLYVGMCFSSFCWHIEDHWSYSINYLHWGEPKTWYGVPSHAAEQLEEVMRELAPELFESQPDLLHQLVTIMNPNVLMEHGVPVYRTNQCAGEFVVTFPRAYHSGFNQGYNFAEAVNFCTADWLPIGRQCVNHYRRLRRHCVFSHEELIFKMAADPECLDVGLAAMVCKELTLMTEEETRLRESVVQMGVLMSEEEVFELVPDDERQCSACRTTCFLSALTCSCNPERLVCLYHPTDLCPCPMQKKCLRYRYPLEDLPSLLYGVKVRAQSYDTWVSRVTEALSANFNHKKDLIELRVMLEDAEDRKYPENDLFRKLRDAVKEAETCASVAQLL
4 | 12 |  | KDM5A^CAT (lysine demethylase 5A, residues 1-801), P29375 R217A; R219A; R220A (protein) MAGVGPGGYAAEFVPPPECPVFEPSWEEFTDPLSFIGRIRPLAEKTGICKIRPPKDWQPPFACEVKSFRFTPRVQRLNELEAMTRVRLDFLDQLAKFWELQGSTLKIPVVERKILDLYALSKIVASKGGFEMVTKEKKWSKVGSRLGYLPGKGTGSLLKSHYERILYPYELFQSGVSLMGVQMPNLDLKEKVEPEVLSTDTQTSPEPGTRMNILPKATAAVKTQSESGDVSRNTELKKLQIFGAGPKVVGLAMGTKDKEDEVTRRRKVTNRSDAFNMQMRQRKGTLSVNFVDLYVCMFCGRGNNEDKLLLCDGCDDSYHTFCLIPPLPDVPKGDWRCPKCVAEECSKPREAFGFEQAVREYTLQSFGEMADNFKSDYFNMPVHMVPTELVEKEFWRLVSSIEEDVIVEYGADISSKDFGSGFPVKDGRRKILPEEEEYALSGWNLNNMPVLEQSVLAHINVDISGMKVPWLYVGMCFSSFCWHIEDHWSYSINYLHWGEPKTWYGVPSHAAEQLEEVMRELAPELFESQPDLLHQLVTIMNPNVLMEHGVPVYRTNQCAGEFVVTFPRAYHSGFNQGYNFAEAVNFCTADWLPIGRQCVNHYRRLRRHCVFSHEELIFKMAADPECLDVGLAAMVCKELTLMTEEETRLRESVVQMGVLMSEEEVFELVPDDERQCSACRTTCFLSALTCSCNPERLVCLYHPTDLCPCPMQKKCLRYRYPLEDLPSLLYGVKVRAQSYDTWVSRVTEALSANFNHKKDLIELRVMLEDAEDRKYPENDLFRKLRDAVKEAETCASVAQLL

From PMC12443421
